This note sets out measurements from PMC3107930.

The Kd is a measure of binding affinity in units of concentration. A low value points to a tighter complex.

The assay addresses motavizumab Fab. Briefly: SPR. Background: Surface plasmon resonance follows binding to a sensor surface in real time, without labels.

Take “RSV F peptide (motavizumab epitope peptide)”: the Kd is 0.241 µM.
